The values that follow come from patent US20220257766A1, “SSTR-TARGETED CONJUGATES AND FORMULATIONS THEREOF” (TVA (ABC), LLC, priority 2019, published 2022).

A short description of data set [1]: Pharmacokinetics of Conjugate 57 in patients. Type of data set: in vivo, human. As for the experimental part: (§1) In previous clincial studies, Conjugate 57 was administered via IV on an every 3 week cycle ([…]). The dose of Conjugate 57 may be 1.0 mg, 2.0 mg, 4.0 mg, 8 mg, 12 mg, 15 mg or MTD, which has been determined to be 18 mg. […] BSA (meters squared), as used herein, can be calculated as the following: the square root of patient height in centimeters times patient weight in kilograms divided by 3600. As shown in FIG. 1A and FIG. 1B, a trend was evident between dose normalized exposure (AUC0-8 and Cmax) vs BSA for Conjugate 57. […] The majority of toxicity observed was at dose levels greater than 8.8 mg/m^2. Based on these unexpected results, that starting dose of Conjuate 57 for patients was changed from 15 mg to 8.8 mg/m^2 or less than 8.8 mg/m^2. Patients received dose levels such as 8.8 mg/m^2, 8.75 mg/m^2, 8.6 mg/m^2, 8.4 mg/m^2, 8.3 mg/m^2, 7.9 mg/m^2, 7.5 mg/m^2, and 6.7 mg/m2.

Data set [2] is described as follows: Buffer screening for solution stability of Conjugate 57. Type of data set: physicochemical. Conditions: acetate buffer at pH range of 4.0 to 4.8, compared with citrate and phosphate buffers. From the text:
Conjugate 57 is a free flowing powder. Previusly studies have found the stability of Conjugate 57 is dependent on the pH of the solution.

The nature of data set [3]: Clinical studies of Conjugate 57 given IV: dose level, benefit and toxicity. In kind it is in vivo, human. On the procedure:
as §1
The risk of over exposure of high Cmax levels in smaller pateints (<1.6 m^2) was reduced. The risk of early discontinuation due to intolerability was reduced and the duration of theray was increased.

[4] abbreviates: human, in vivo, intravenous, in a patient.
Setting [5] is: patients, dose per body surface area.

In data set [1] (setting [4]), `COc1cc2cc(c1Cl)N(C)C(=O)C[C@H](OC(=O)[C@H](C)N(C)C(=O)CCSSC[C@H](NC(=O)[C@@H]1CSSC[C@H](NC(=O)[C@H](N)Cc3ccccc3)C(=O)N[C@@H](Cc3ccc(O)cc3)C(=O)N[C@H](Cc3c[nH]c4ccccc34)C(=O)N[C@@H](CCCCN)C(=O)N[C@@H]([C@@H](C)O)C(=O)N1)C(N)=O)[C@]1(C)O[C@H]1[C@H](C)[C@@H]1C[C@@](O)(NC(=O)O1)[C@H](OC)/C=C/C=C(\C)C2` [Conjugate 57] showed a clearance of 318 mL/min and a half-life of roughly 1.8 h. Also, in data set [1] (patients, FIG. 1A and FIG. 1B), the “exposure (dose normalized AUC0-8 and Cmax) vs body surface area” value is “correlateds with body surface area (BSA)”. For the same molecule, the “stability in buffered solution” value in data set [2] is “most stability”. The MTD in data set [3] (IV, every 3 week cycle, flat dose, previous clinical studies) worked out at 18 mg. In addition, the “effect on efficacy of changing from flat doses to doses based on body surface area” value in data set [3] (patients) is on record as “no negative effect on efficacy”. In data set [3] (setting [5]), the “dose levels at which maximum benefit was observed” value is reported as no more than 8.8 mg/m^2 and the “dose levels at which the majority of toxicity was observed” value is listed as “greater than 8.8 mg/m^2”.
